B1: double-ring (DR) mutant GroEL 14-mer (mutant GroEL14) (natural protein, E. coli, UniProt P0A6F5 2-548, looked up)
chain: AAKDVKFGNDARVKMLRGVNVLADAVKVTLGPKGRNVVLDKSFGAPTITKDGVSVAREIELEDKFENMGAQMVKEVASKANDAAGDGTTTATVLAQAIITEGLKAVAAGMNPMDLKRGIDKAVTAAVEELKALSVPASDSKAIAQVGTISANSDETVGKLIAEAMDKVGKEGVITVEDGTGLQDELDVVEGMQFDRGYLSPYFINKPETGAVELESPFILLADKKISNIREMLPVLEAVAKAGKPLLIIAEDVEGEALATLVVNTMRGIVKVAAVKAPGFGDRRKAMLQDIATLTGGTVISEEIGMELEKATLEDLGQAKRVVINKDTTTIIDGVGEEAAIQGRVAQIRQQIEEATSDYDREKLQERVAKLAGGVAVIKVGAATEVEMKEKKARVEDALHATRAAVEEGVVAGGGVALIRVASKLADLRGQNEDQNVGIKVALRAMEAPLRQIVLNAGEEPSVVANTVKGGDGNYGYNAATEEYGNMIDMGILDPTKVTRSALQYAASVAGLMITTEAMVTDLPKNDAADLGAAGGMGGMGGMGGMC
notes: GroEL, E. coli, UniProtKB P0A6F5, with four mutations made by QuikChange from the WT GroEL gene; the measured mass fits 14 monomers with the N-terminal methionine cleaved; numbers count the first methionine; also called DR GroEL14; source: E. coli BL21 (DE3) Gold, purified from the soluble fraction (chromatography, size exclusion); copies: 14

Key:
[1] = biological target: B1; assay: native MS; CE-MS; GroEL14 (6 µM) and GroES7 (6 µM) injected; BGE 50 mM ammonium acetate pH 6.7 with 10 to 50 µM ATPγS and 15 to 75 µM Mg2+; details: both partners purified
[2] = biological target: the molecule itself; assay: native MS; capillary electrophoresis online with native ESI-MS (CE-MS) of the oligomer; bare fused silica capillary, BGE 50 mM ammonium acetate pH 6.7, 20 kV reverse polarity, cartridge 15 °C, in-source desolvation 100 V; sample diluted in 50 mM Tris-HCl pH 7.5, 50 mM KCl, 15 mM MgCl2

Row | Binder | stoichiometry N [1] [GroES7 per GroEL14] | stoichiometry N [2] [subunits]
1 | co-chaperonin GroES 7-mer (GroES7) (natural protein, E. coli, UniProt P0A6F9 1-97, looked up, GroES, E. coli, WT monomer; the measured mass fits the non-truncated form (N-terminal methionine kept); also called apo-GroES7; source: E. coli BL21 (DE3) Gold, purified from the soluble fraction (chromatography, size exclusion)) MNIRPLHDRVIVKRKEVETKSAGGIVLTGSAAAKSTRGEVLAVGNGRILENGEVKPLDVKVGDIVIFNDGYGVKSEKIDNEEVLIMSESDILAIVEA | 1 | 7
2 | N-acetyl neuraminic acid aldolase, native tetramer (NanA4) (enzyme, E. coli, UniProt P0A6L4 2-297, looked up, N-acetyl neuraminic acid aldolase NanA, E. coli, WT monomer; the theoretical mass quoted for the detected tetramer (129 849.09 Da) is that with the N-terminal methionine cleaved; also called tetrameric NanA4; source: E. coli BL21 (DE3) Gold, purified from the soluble fraction (chromatography, size exclusion)) ATNLRGVMAALLTPFDQQQALDKASLRRLVQFNIQQGIDGLYVGGSTGEAFVQSLSEREQVLEIVAEEAKGKIKLIAHVGCVSTAESQQLAASAKRYGFDAVSAVTPFYYPFSFEEHCDHYRAIIDSADGLPMVVYNIPALSGVKLTLDQINTLVTLPGVGALKQTSGDLYQMEQIRREHPDLVLYNGYDEIFASGLLAGADGGIGSTYNIMGWRYQGIVKALKEGDIQTAQKLQTECNKVIDLLIKTGVFRGLKTVLHYMDVVSVPLCRKPFGPVDEKYLPELKALAQQLMQERG | – | 4
3 | B1 | – | 14
4 | single-ring (SR) mutant GroEL 7-mer (GroEL7) (natural protein, E. coli, UniProt P0A6F5 2-548, looked up, GroEL, E. coli, UniProtKB P0A6F5, with four mutations made by QuikChange from the WT GroEL gene; theoretical mass quoted for 7 monomers with the N-terminal methionine cleaved; numbers count the first methionine; also called SR GroEL7; mutant SR; source: E. coli BL21 (DE3) Gold, purified from the soluble fraction (chromatography, size exclusion)) AAKDVKFGNDARVKMLRGVNVLADAVKVTLGPKGRNVVLDKSFGAPTITKDGVSVAREIELEDKFENMGAQMVKEVASKANDAAGDGTTTATVLAQAIITEGLKAVAAGMNPMDLKRGIDKAVTAAVEELKALSVPCSDSKAIAQVGTISANSDETVGKLIAEAMDKVGKEGVITVEDGTGLQDELDVVEGMQFDRGYLSPYFINKPETGAVELESPFILLADKKISNIREMLPVLEAVAKAGKPLLIIAEDVEGEALATLVVNTMRGIVKVAAVKAPGFGDRRKAMLQDIATLTGGTVISEEIGMELEKATLEDLGQAKRVVINKDTTTIIDGVGEEAAIQGRVAQIRQQIEEATSDYDREKLQERVAKLAGGVAVIKVGAATEVEMKEKKARVEDALHATRAAVEEGVVAGGGVALIRVASKLADLRGQNEDQNVGIKVALRAMEAPLEQIVLNCGEAPAAVANTVKGGDGNYGYNAATEEYGNMIDMGILDPTKVTRSALQYAASVAGLMITTECMVTDLPKNDAADLGAAGGMGGMGGMGGMM | – | 7

— publication PMC10953559, “Native Capillary Electrophoresis–Mass Spectrometry of Near 1 MDa Non‐Covalent GroEL/GroES/Substrate Protein Complexes” (Advanced Science, 2024)
